Measurements: patent US20070010658A1 (published 2007)

Legend:
[1] = target: T1, TNF alpha (UniProt P01375 77-233, limits assumed); assay: SPR (BIAcore 3000), TNF alpha captured by immobilised antibody AHC3712, binder injected
T1 construct: also called tumour necrosis factor; TNFSF2
Procedure: (§1) Surface plasmon resonance (SPR) binding analysis was performed on a BIAcore 3000 instrument (BiaCore, Sweden). TNF alpha capture antibody (AHC3712, Biosource International) to be immobilized was dissolved in 10 mM NaAcetate pH 5.0 and then immobilized on a CM5 BiaCore sensor chip using the Amine Coupling kit (BiaCore, Sweden).
(§2) Binding analysis was performed at a flow rate of 5 μl/min. Before loading of the protein sample, the chip was equilibrated in 10 mM Tris pH 8.0, 150 mM NaCl, 2 mM CaCl₂, 50 μM EDTA and 0.005% Surfactant P20. TNF alpha was dissolved in 10 mM Tris pH 8.0, 150 mM NaCl, 2 mM CaCl₂ at 10 μg/mL and 10 μL was injected. Aliquots (20 μl) of TNF alpha binders in monomeric or the trimeric format were injected using the KINJECT option. Five min of dissociation were allowed before the chip was regenerated with 10 mM Glycine pH 2.5. Binding of TNF alpha binders was tested at six different protein concentrations, ranging from 1 to 200 nM. Binding data were evaluated using the BIAevaluation program version 3.2 (BiaCore).

[2] = target: T1, TNF alpha; assay: SPR; fold increase in affinity of the trimer over monomeric TN3-2-B
Procedure: as §1, §2

[3] = target: T1, TNF alpha; assay: SPR; off rate of the trimer against monomeric TN3-2-B
Procedure: as §1, §2

[4] = target: T1, TNF alpha; assay: SPR; fold increase in affinity of the trimer over monomeric TN3-2-C
Procedure: as §1, §2

[5] = target: T1, TNF alpha; assay: SPR; fold increase in affinity of the trimer over monomeric TN3-2-D
Procedure: as §1, §2

T1 sequence (P01375 77-233 limits assumed): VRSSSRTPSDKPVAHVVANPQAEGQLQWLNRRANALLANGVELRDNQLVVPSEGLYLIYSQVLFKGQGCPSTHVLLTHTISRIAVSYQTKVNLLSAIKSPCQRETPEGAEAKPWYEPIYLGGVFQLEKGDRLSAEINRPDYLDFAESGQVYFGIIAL

| Binder | Kd [1] [nM] | koff [1] [s⁻¹] | kon [1] [M⁻¹ s⁻¹] | Fold increase [2] [fold] | fold improvement of off value [3] [fold] | Fold increase [4] [fold] | Fold increase [5] [fold] |
| --- | --- | --- | --- | --- | --- | --- | --- |
| TN-2-B (trimeric) (designed binder, also called trimeric version of TN3-2-B) EPPTQKPKKIVNAKKDVVNTKMFEELKSRLDTLAQEVALLKEQQALQTVCLKGTKVHMKCFLAFTQTKTFHEASEDCISRGGTLSTPQTGSENDALYEYLRQSVGNEAEIWLGLNKVRSRYFWMDMTGTRIAYKNWETEITAQPDPTNNENCAVLSGAANGKWFGKRCRDQLPYICQFGIV | ~0.24 | 0.000736 | 3.02e+06 | 304 | > 1000 | – | – |
| TN-2-C (trimeric) (designed binder, also called trimeric version of TN3-2-C) EPPTQKPKKIVNAKKDVVNTKMFEELKSRLDTLAQEVALLKEQQALQTVCLKGTKVHMKCFLAFTQTKTFHEASEDCISRGGTLSTPQTGSENDALYEYLRQSVGNEAEIWLGLNKVRSRYFWVDMTGTRIAYKNWETEITAQPDPTNRENCAVLSGAANGKWFDKRCRDQLPYICQFGIV | 4 | 0.00353 | 884000 | – | – | 37 | – |
| TN-2-D (trimeric) (designed binder, also called trimeric version of TN3-2-D) EPPTQKPKKIVNAKKDVVNTKMFEELKSRLDTLAQEVALLKEQQALQTVCLKGTKVHMKCFLAFTQTKTFHEASEDCISRGGTLSTPQTGSENDALYEYLRQSVGNEAEIWLGLNKVRSRYFWIDMTGTRIAYKNWETEITAQPDPNNRENCAVLSGAANGKWFGKRCRDQLPYICQFGIV | 4.1 | 0.00207 | 506000 | – | – | – | 12 |
| TN3-2-B (monomeric) (designed binder, Purified monomer from the E. coli periplasm (pBAD) for SPR) ALQTVCLKGTKVHMKCFLAFTQTKTFHEASEDCISRGGTLSTPQTGSENDALYEYLRQSVGNEAEIWLGLNKVRSRYFWMDMTGTRIAYKNWETEITAQPDPTNNENCAVLSGAANGKWFGKRCRDQLPYICQFGIV | 73 | 0.923 | 1.4e+07 | – | – | – | – |
| TN3-2-C (monomeric) (designed binder, Purified monomer from the E. coli periplasm (pBAD) for SPR) ALQTVCLKGTKVHMKCFLAFTQTKTFHEASEDCISRGGTLSTPQTGSENDALYEYLRQSVGNEAEIWLGLNKVRSRYFWVDMTGTRIAYKNWETEITAQPDPTNRENCAVLSGAANGKWFDKRCRDQLPYICQFGIV | 150 | 0.022 | 134000 | – | – | – | – |
| TN3-2-D (monomeric) (designed binder, Purified monomer from the E. coli periplasm (pBAD) for SPR) ALQTVCLKGTKVHMKCFLAFTQTKTFHEASEDCISRGGTLSTPQTGSENDALYEYLRQSVGNEAEIWLGLNKVRSRYFWIDMTGTRIAYKNWETEITAQPDPNNRENCAVLSGAANGKWFGKRCRDQLPYICQFGIV | 50 | 0.0185 | 364000 | – | – | – | – |
